Assay results from the supplement of paper PMC9732359.
± gives the uncertainty stated by the source.

Test: protein stability index of a GFP-peptide fusion (yeast GPS) (PSI 1-4); higher = more stable; sorted into four equal gates, so the index is relative within each strain
Summary of the method: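 Tiled yeast protein peptides of 17 residues were each joined downstream of GFP, on plasmids that also express Cherry. The pooled library was maintained in yeast, and mid-log cultures in leucine-free medium were sorted into four equal gates on the GFP/Cherry ratio. Plasmids from every gate were amplified by PCR and sequenced on Illumina, with barcodes linking reads to strains. The protein stability index of a peptide is its gate-number-weighted read frequency summed over the gates.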

Sequence | protein stability index (doa10∆) | protein stability index (pdr5∆) | protein stability index (san1∆) | protein stability index (ubr1∆)
HLRYQPDGVVVHRDDPA [SNF6] | 2.91 ± 0.12 | 3.29 ± 0.1 | 2.94 ± 0.082 | 3.28 ± 0.08
TDYFLPKNYSLHGLRSF [YJL039C/NUP192] | 1.96 ± 0.061 | 2.13 ± 0.065 | 2.12 ± 0.055 | 2.11 ± 0.064
INVETVYDIMALEDEER [BRR2] | 2.99 ± 0.092 | 2.8 ± 0.081 | 2.73 ± 0.066 | 2.79 ± 0.067
LRRASATVPSAPYRKQI [YAR002W/NUP60] | 2.72 ± 0.095 | 2.93 ± 0.11 | 2.07 ± 0.13 | 2.64 ± 0.068
DMFEMSDEEENNNNKSI [SSN2] | – | 3.19 ± 0.18 | 3.32 ± 0.17 | 3.04 ± 0.079
PMEVMGLMLGEFVDDYT [RPN11] | 3.29 ± 0.12 | 3.28 ± 0.095 | 3.12 ± 0.14 | 3.08 ± 0.074
LLHSKPSLLLQKDQDGR [NAS6] | 3.22 ± 0.22 | 3.33 ± 0.13 | – | –
KKDQSVLKSHSNDFEEG [YMR129W/POM152] | 2.59 ± 0.087 | 2.99 ± 0.12 | 3.07 ± 0.071 | 2.95 ± 0.073
DGTAQLSNNKTDEEEQL [YJR042W/NUP85] | 2.77 ± 0.25 | 3.16 ± 0.14 | 3.27 ± 0.15 | 3.18 ± 0.098
SCGEEEFFSTNWLSIFN [REC8] | 3.33 ± 0.098 | 3.29 ± 0.073 | 3.34 ± 0.1 | 2.96 ± 0.087
DVKTAEEASQLIEYMEN [NUT1] | 2.91 ± 0.086 | 3.04 ± 0.099 | 3.05 ± 0.08 | 3.1 ± 0.064
FIMVKGCIPGNRKRIVT [RPL3] | 1.39 ± 0.063 | 1.48 ± 0.08 | 1.57 ± 0.2 | 1.28 ± 0.06
LLLRCDDRVDKKFVSQI [POP3] | 3.27 ± 0.11 | 3.34 ± 0.066 | 3.03 ± 0.054 | 3.22 ± 0.042
LLWTPKKLEITSDGALS [RPR2] | 2.09 ± 0.047 | 2.42 ± 0.048 | 2.61 ± 0.044 | 2.4 ± 0.034
ILPTDGSAEFNVKYRAV [RPB7] | 2.57 ± 0.2 | – | 3.08 ± 0.13 | 3.48 ± 0.22
FVSESPSFVKSGKLRDY [ISW2] | 2.41 ± 0.059 | 2.11 ± 0.051 | 2.28 ± 0.049 | 2.7 ± 0.044
TPDTKNFFHAKKKDPVN [SNF12] | 3.29 ± 0.097 | 2.97 ± 0.079 | 3.1 ± 0.068 | 3.17 ± 0.1
KRDAKAAGSYYVEAQHK [RPL7A] | 3.21 ± 0.086 | 3.19 ± 0.046 | 3.22 ± 0.042 | 2.91 ± 0.054
LSYYVEETNVDIGVLEE [SMC4] | – | 3.38 ± 0.22 | 3.62 ± 0.072 | 3.5 ± 0.1
NLDNLQKVSQLESADKQ [POP4] | 3.06 ± 0.1 | 2.59 ± 0.1 | 3.01 ± 0.092 | 2.86 ± 0.18
HLGLDDPQDVFNYNIFM [SIR2] | 2.99 ± 0.087 | 3.2 ± 0.14 | 3.24 ± 0.13 | 3.26 ± 0.078

Sequence | protein stability index (doa10∆) | protein stability index (pdr5∆) | protein stability index (san1∆) | protein stability index (ubr1∆)
MDAYSTRPLTLSHGSLE [FAS1] | 3.18 ± 0.11 | 3.15 ± 0.1 | 3.05 ± 0.093 | 3.3 ± 0.087
IYNNIVSNIEGILDEIM [RGR1] | 2.72 ± 0.08 | 2.09 ± 0.066 | 2.15 ± 0.098 | 2.46 ± 0.05
VQESGNIDYQKGLLIWR [GRR1] | 3.35 ± 0.091 | 3.13 ± 0.1 | 3.37 ± 0.1 | 2.75 ± 0.079
GNGKLSEHFLYLAKELN [RPN1] | 3.06 ± 0.23 | 2.19 ± 0.18 | 2.42 ± 0.2 | 2.98 ± 0.29
YMQRTVEEAHDFNMKLA [RPB2] | 3.09 ± 0.098 | 3.04 ± 0.1 | 3.02 ± 0.075 | 2.99 ± 0.062
LVSVVEAFIASGITDPY [FAS2] | 1.42 ± 0.041 | 1.39 ± 0.042 | 1.67 ± 0.072 | 1.85 ± 0.035
RDVSDDVFDTLATYCPR [GRR1] | 3.02 ± 0.084 | 3.04 ± 0.071 | 3.05 ± 0.056 | 3.22 ± 0.06
DRQLHEISTSKKNNLEF [RPN14] | 2.96 ± 0.064 | 3.13 ± 0.075 | 2.93 ± 0.071 | 3.17 ± 0.093
LLSENRSEKSTTNAQTK [SRP54] | 2.86 ± 0.15 | 2.84 ± 0.099 | 2.88 ± 0.09 | 2.92 ± 0.064
NVKEITEKLKISPESVF [SMC3] | 1.7 ± 0.086 | 2.18 ± 0.069 | 2.32 ± 0.13 | 2.04 ± 0.052
LPLYEKNTLLERLKQLT [SWP82] | 2.71 ± 0.16 | 2.87 ± 0.088 | 2.73 ± 0.1 | 2.87 ± 0.22
QPDENTKEMDEVEEDDE [SWI3] | 3.22 ± 0.17 | 3.49 ± 0.15 | 3.53 ± 0.092 | 3.43 ± 0.054
ISFLEPINLKFLQGESP [YMR129W/POM152] | 2.6 ± 0.073 | 2.94 ± 0.11 | – | 2.67 ± 0.15
VAGAGAASGAAAAGGDA [RPP1B] | 3.09 ± 0.18 | 2.79 ± 0.092 | 3.22 ± 0.22 | 2.62 ± 0.078
DLLHPTAASEARKHKLK [RPS27A] | 2.29 ± 0.1 | 3.11 ± 0.068 | 2.53 ± 0.11 | 3.07 ± 0.072
NNTVDPGFDEFQLIDMK [CSI1] | 3.18 ± 0.064 | 3.12 ± 0.062 | 3.31 ± 0.038 | 3.21 ± 0.041
LELPLCPYCYKKRREYF [SIR2] | 2.46 ± 0.053 | 2.06 ± 0.057 | 1.95 ± 0.07 | 1.98 ± 0.077
IDFAPTSPFGGARPGRV [RPS9A] | 2.82 ± 0.072 | 2.53 ± 0.074 | 2.62 ± 0.074 | 2.74 ± 0.05
HPPDFKRMLLSLSEFAR [SNF2] | 1.32 ± 0.038 | 1.33 ± 0.036 | 1.26 ± 0.064 | 1.27 ± 0.023
SLYTSREPRVVSALQML [PUP1] | 2.66 ± 0.11 | 2.86 ± 0.065 | 3.03 ± 0.061 | 2.92 ± 0.048
